Patent US20030104532A1 (CHILDREN S MEDICAL CENTER, published 2003)

T1: Human neuropilin-2 (NP-2) (human, UniProt O60462 21-931)
T1 sequence: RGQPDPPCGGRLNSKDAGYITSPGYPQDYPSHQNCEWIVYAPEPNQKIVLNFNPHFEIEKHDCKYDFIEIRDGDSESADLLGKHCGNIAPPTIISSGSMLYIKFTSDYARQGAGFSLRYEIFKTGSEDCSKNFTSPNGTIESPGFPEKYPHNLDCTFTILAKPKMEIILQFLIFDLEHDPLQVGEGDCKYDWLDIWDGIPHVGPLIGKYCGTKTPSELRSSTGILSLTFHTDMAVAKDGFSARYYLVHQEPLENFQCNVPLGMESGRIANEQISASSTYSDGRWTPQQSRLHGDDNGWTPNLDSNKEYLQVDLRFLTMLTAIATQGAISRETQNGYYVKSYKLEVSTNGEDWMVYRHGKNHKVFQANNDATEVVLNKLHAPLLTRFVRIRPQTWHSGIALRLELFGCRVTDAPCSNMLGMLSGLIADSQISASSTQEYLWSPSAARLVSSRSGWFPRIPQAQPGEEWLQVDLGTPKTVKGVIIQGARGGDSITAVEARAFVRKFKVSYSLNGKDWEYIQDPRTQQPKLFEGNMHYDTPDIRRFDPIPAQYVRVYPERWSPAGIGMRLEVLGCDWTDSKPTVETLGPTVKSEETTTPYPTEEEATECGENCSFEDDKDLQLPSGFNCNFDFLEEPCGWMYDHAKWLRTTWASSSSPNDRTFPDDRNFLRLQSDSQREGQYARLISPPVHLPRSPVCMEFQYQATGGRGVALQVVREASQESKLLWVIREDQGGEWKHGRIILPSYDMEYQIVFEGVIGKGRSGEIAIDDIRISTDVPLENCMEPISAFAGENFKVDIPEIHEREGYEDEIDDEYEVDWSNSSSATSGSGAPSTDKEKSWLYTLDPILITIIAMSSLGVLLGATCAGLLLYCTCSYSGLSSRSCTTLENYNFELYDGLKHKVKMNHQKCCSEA


Assays:
[1] = target: T2, Human VEGF165R/NP-1 (neuropilin-1) (human, UniProt O14786 22-923); assay: cell-based or functional assay
[2] = target: T3, Neuropilin-1 on Dunning rat prostate carcinoma AT3.1 cells (rat, UniProt Q9QWJ9 22-922); assay: ^125I-VEGF165 cross-linking to Dunning rat prostate carcinoma cells
T3 construct: whole, on cells; also called VEGF165R/NP-1 (AT3.1 cells)

[3] = target: T2, Human VEGF165R/NP-1 (neuropilin-1); assay: Scatchard analysis (LIGAND program) of ^125I-VEGF165 binding to PAE/NP-1 cells
Description: Scatchard Analysis of VEGF₁₆₅ Binding to VEGF₁₆₅R/NP-1.7A. Increasing amounts of ¹²⁵I-VEGF₁₆₅ (0.1-50 ng/ml) were added to subconfluent cultures of PAE cells transfected with human VEGF₁₆₅R/NP-1 cDNA (PAE/NP-1 cells) in 48 well dishes. Non-specific binding was determined by competition with a 200-fold excess of unlabeled VEGF₁₆₅. After binding, the cells were washed, lysed and the cell-associated radioactivity was determined using a y counter.
The specific activity ranged from 40,000-100,000 cpm/ng protein. […] VEGF binding was quantitated by measuring the cell-associated radioactivity in a y-counter (Beckman, Gamma 5500). The counts represent the average of three wells. All experiments were repeated at least three times and similar results were obtained.

[4] = target: T1, Human neuropilin-2 (NP-2); assay: expression cloning: one of the seven single clones positive for ^125I-VEGF165 binding to transfected COS-7 cells
Description: The E. coli were sub-divided into 50 separate pools and plated onto 50 LB ampicillin dishes, with each pool representing approximately 100 clones. DNA made from these pools was transfected into COS-7 cells which were screened for ¹²⁵I-VEGF₁₆₅ binding as described above. […] Each pool was plated onto separate LB ampicillin dishes and DNA was prepared from 96 individual colonies and screened in a 96-well two dimensional grid for ¹²⁵I-VEGF₁₆₅ binding to tranfected COS-7 cells as described above. […] The seven positive plasmid clones were amplified and their DNA was analyzed by restriction enzyme digestion. […] One clone from each group was submitted for automated DNA sequencing.
E. coli transformed with the plasmid library were divided into pools.

[5] = target: T2, Human VEGF165R/NP-1 (neuropilin-1); assay: ^125I-VEGF121 binding and chemical cross-linking to PAE/NP-1 cells, SDS-PAGE, autoradiography
Description: FIG. 8. […] The binding was carried out in the presence of 1 μg/ml heparin. […] The cells were lysed and proteins were resolved by 6% SDS-PAGE. The polyacrylamide gel was dried and exposed to X-ray film.

Binder | 231 breast carcinoma cell motility (Boyden chamber motility assay) [1] | binding result [2] | Kd [3] | binding result [4] | binding result [5]
Human recombinant VEGF165 (ligand, UniProt P15692-4 27-191, looked up, radio-iodinated (^125I, IODO-BEADS) in the binding and cross-linking experiments; coupled to Sepharose beads in the affinity purification, mature) APMAEGGGQNHHEVVKFMDVYQRSYCHPIETLVDIFQEYPDEIEYIFKPSCVPLMRCGGCCNDEGLECVPTEESNITMQIMRIKPHQGQHIGEMSFLQHNKCECRPKKDRARQENPCGPCSERRKHLFVQDPQTCKCSCKNTDSRCKARQLELNERTCRCDKPRR | 2 fold | binds | ~0.32 nM | binds | 
Human recombinant VEGF121 (ligand, UniProt P15692-9 27-147, looked up, radio-iodinated (^125I, IODO-BEADS) in the cross-linking experiments, mature) APMAEGGGQNHHEVVKFMDVYQRSYCHPIETLVDIFQEYPDEIEYIFKPSCVPLMRCGGCCNDEGLECVPTEESNITMQIMRIKPHQGQHIGEMSFLQHNKCECRPKKDRARQEKCDKPRR |  |  |  |  | no binding (tested: 10 ng/ml)
